The text below walks through data of patent publication US6413943 (CELL GENESYS, dated 2002).

Among the targets are CDK2/cyclin A complex (UniProt P24941 1-298); CDK2/cyclin E complex (UniProt P24941 1-298); CDC2/cyclin B complex (UniProt P06493 1-297); CDK4/cyclin D1 complex (UniProt P11802 1-303; P24385 1-295).
Test in all cases: cell-based or functional assay

Sequence of CDC2/cyclin B complex (P06493 whole entry, one chain of several): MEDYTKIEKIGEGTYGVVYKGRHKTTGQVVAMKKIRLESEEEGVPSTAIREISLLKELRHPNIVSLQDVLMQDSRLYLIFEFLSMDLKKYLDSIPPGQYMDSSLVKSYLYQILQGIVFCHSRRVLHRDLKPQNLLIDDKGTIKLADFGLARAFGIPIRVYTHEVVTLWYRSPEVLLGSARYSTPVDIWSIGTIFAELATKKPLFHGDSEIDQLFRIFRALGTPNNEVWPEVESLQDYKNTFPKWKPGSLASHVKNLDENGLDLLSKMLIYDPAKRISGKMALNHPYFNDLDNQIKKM
Sequence of CDK4/cyclin D1 complex (P11802 whole entry, chain 1 of 2): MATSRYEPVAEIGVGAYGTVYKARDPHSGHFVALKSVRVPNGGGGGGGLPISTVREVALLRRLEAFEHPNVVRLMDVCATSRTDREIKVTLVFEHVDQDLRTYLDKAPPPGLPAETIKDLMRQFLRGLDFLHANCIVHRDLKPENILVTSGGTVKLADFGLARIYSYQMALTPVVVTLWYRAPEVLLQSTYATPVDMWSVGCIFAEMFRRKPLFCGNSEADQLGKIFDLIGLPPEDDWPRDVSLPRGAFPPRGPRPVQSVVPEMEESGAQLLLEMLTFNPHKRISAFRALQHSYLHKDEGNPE
Sequence of CDK4/cyclin D1 complex (P24385 whole entry, chain 2 of 2): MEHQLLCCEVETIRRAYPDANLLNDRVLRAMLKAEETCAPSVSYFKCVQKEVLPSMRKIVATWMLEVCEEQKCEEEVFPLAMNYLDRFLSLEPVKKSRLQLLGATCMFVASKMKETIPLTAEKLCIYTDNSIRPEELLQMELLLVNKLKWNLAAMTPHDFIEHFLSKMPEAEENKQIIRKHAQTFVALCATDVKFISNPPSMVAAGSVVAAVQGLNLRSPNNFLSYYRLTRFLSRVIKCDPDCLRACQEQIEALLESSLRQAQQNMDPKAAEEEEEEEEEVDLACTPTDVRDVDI

B1: human p16 (other)
chain: MEPAAGSSMEPSADWLATAAARGRVEEVRALLEAGALPNAPNSYGRRPIQVMMMGSARVAELLLLHGAEPNCADPATLTRPVHDAAREGFLDTLVVLHRAGARLDVRDAWGRLPVDLAEELGHRDVARYLRAAAGGTRGSNHARIDAAEGPSDIPD
As for B1, in the assay with CDK2/cyclin A complex, the “IC50, in vitro kinase activity” value was more than 500 nM. In addition, the “IC50, in vitro kinase activity (GST-Rb phosphorylation)” value was more than 500 nM with CDK2/cyclin E complex and 250 nM with CDK4/cyclin D1 complex. Besides, the “IC50, in vitro kinase activity (histone H1 phosphorylation)” value with CDC2/cyclin B complex is more than 500 nM.
